Results reported in the Human Domainome abundance scans (Beltran et al. 2025).
± gives the uncertainty stated by the source.

B1: Tumor protein 63, residues 545 to 610; numbered along this chain, Q9H3D4 (parent)
chain: TDCSIVSFLARLGCSSCLDYFTTQGLTTIYQIEHYSMDDLASLKIPEQFRHAIWKGILDHRQLHEF

Variants of: B1
Experiment: abundance fitness (aPCA) (normalised: wild type 0, dead -1); higher = more abundant; growth selection in yeast, the domain comes from the species named
Conditions: Homo sapiens

Variant	abundance fitness
TDCSIVSFLARLGCSSCLDYFTTQGLTTIYQIEHYSMDDLASLKIPEQFRHAIWKGILDCRQLHEF [H60C]	-0.004 ± 0.037
TDCSIVSFLARLGCSSCLDYFTTQGLTTIYQIEHYSMDDLASLKIPEQFRHAIWKGILDARQLHEF [H60A]	-0.019 ± 0.037
TDCSIVSFLARLGCSSCLDYFTTQGLTTIYQIEHYSMDDLASLKIPEQFRHAIWKGITDHRQLHEF [L58T]	0.002 ± 0.027
TDCSIVSFLARLGCSSCLDYFTTQGLTTIYQIEHYSMDDLASLKIPEQFRHAIWKGICDHRQLHEF [L58C]	0.01 ± 0.041
TDCSIVSFLARLGCSSCLDYFTTQGLTTIYQIEHYSMDDLASLKIPEQFRHAIWKGINDHRQLHEF [L58N]	-0.039 ± 0.074
TDCSIVSFLARLGCSSCLDYFTTQGLTTIYQIEHYSMDDLASLKIPEQFRHAIWKGIIDHRQLHEF [L58I]	0 ± 0.057
TDCSIVSFLARLGCSSCLDYFTTQGLTTIYQIEHYSMDDLASLKIPEQFRHAIWKGIGDHRQLHEF [L58G]	0.002 ± 0.027
TDCSIVSFLARLGCSSCLDYFTTQGLTTIYQIEHYSMDDLASLKIPEQFRHAIWKGIVDHRQLHEF [L58V]	-0.006 ± 0.03
TDCSIVSFLARLGCSSCLDYFTTQGLTTIYQIEHYSMDDLASLKIPEQFRHAIWKGIKDHRQLHEF [L58K]	-0.001 ± 0.043
TDCSIVSFLARLGCSSCLDYFTTQGLTTIYQIEHYSMDDLASLKIPEQFRHAIWKGISDHRQLHEF [L58S]	-0.007 ± 0.022
TDCSIVSFLARLGCSSCLDYFTTQGLTTIYQIEHYSMDDLASLKIPEQFRHAIWKGIRDHRQLHEF [L58R]	0.006 ± 0.024
TDCSIVSFLARLGCSSCLDYFTTQGLTTIYQIEHYSMDDLASLKIPEQFRHAIWKGIADHRQLHEF [L58A]	-0.01 ± 0.022
TDCSIVSFLARLGCSSCLDYFTTQGLTTIYQIEHYSMDDLASLKIPEQFRHAIWKGIYDHRQLHEF [L58Y]	0.026 ± 0.045
TDCSIVSFLARLGCSSCLDYFTTQGLTTIYQIEHYSMDDLASLKIPEQFRHAIWKGIFDHRQLHEF [L58F]	-0.034 ± 0.029
TDCSIVSFLARLGCSSCLDYFTTQGLTTIYQIEHYSMDDLASLKIPEQFRHAIWKGIEDHRQLHEF [L58E]	-0.015 ± 0.03
TDCSIVSFLARLGCSSCLDYFTTQGLTTIYQIEHYSMDDLASLKIPEQFRHAIWKGIMDHRQLHEF [L58M]	-0.06 ± 0.043
TDCSIVSFLARLGCSSCLDYFTTQGLTTIYQIEHYSMDDLASLKIPEQFRHAIWKGIPDHRQLHEF [L58P]	-0.272 ± 0.028
TDCSIVSFLARLGCSSCLDYFTTQGLTTIYQIEHYSMDDLASLKIPEQFRHAIWKGILLHRQLHEF [D59L]	-0.074 ± 0.023
TDCSIVSFLARLGCSSCLDYFTTQGLTTIYQIEHYSMDDLASLKIPEQFRHAIWKGILHHRQLHEF [D59H]	-0.024 ± 0.055
TDCSIVSFLARLGCSSCLDYFTTQGLTTIYQIEHYSMDDLASLKIPEQFRHAIWKGILAHRQLHEF [D59A]	-0.009 ± 0.022
TDCSIVSFLARLGCSSCLDYFTTQGLTTIYQIEHYSMDDLASLKIPEQFRHAIWKGILEHRQLHEF [D59E]	-0.006 ± 0.027

Variant	abundance fitness
TDCSIVSFLARLGCSSCLDYFTTQGLTTIYQIEHYSMDDLASLKIPEQFRHAIWKGILFHRQLHEF [D59F]	-0.09 ± 0.031
TDCSIVSFLARLGCSSCLDYFTTQGLTTIYQIEHYSMDDLASLKIPEQFRHAIWKGILQHRQLHEF [D59Q]	-0.027 ± 0.045
TDCSIVSFLARLGCSSCLDYFTTQGLTTIYQIEHYSMDDLASLKIPEQFRHAIWKGILIHRQLHEF [D59I]	-0.084 ± 0.034
TDCSIVSFLARLGCSSCLDYFTTQGLTTIYQIEHYSMDDLASLKIPEQFRHAIWKGILMHRQLHEF [D59M]	-0.066 ± 0.034
TDCSIVSFLARLGCSSCLDYFTTQGLTTIYQIEHYSMDDLASLKIPEQFRHAIWKGILCHRQLHEF [D59C]	-0.058 ± 0.037
TDCSIVSFLARLGCSSCLDYFTTQGLTTIYQIEHYSMDDLASLKIPEQFRHAIWKGILYHRQLHEF [D59Y]	-0.054 ± 0.042
TDCSIVSFLARLGCSSCLDYFTTQGLTTIYQIEHYSMDDLASLKIPEQFRHAIWKGILRHRQLHEF [D59R]	-0.087 ± 0.024
TDCSIVSFLARLGCSSCLDYFTTQGLTTIYQIEHYSMDDLASLKIPEQFRHAIWKGILTHRQLHEF [D59T]	-0.111 ± 0.04
TDCSIVSFLARLGCSSCLDYFTTQGLTTIYQIEHYSMDDLASLKIPEQFRHAIWKGILKHRQLHEF [D59K]	-0.06 ± 0.052
TDCSIVSFLARLGCSSCLDYFTTQGLTTIYQIEHYSMDDLASLKIPEQFRHAIWKGILNHRQLHEF [D59N]	-0.079 ± 0.04
TDCSIVSFLARLGCSSCLDYFTTQGLTTIYQIEHYSMDDLASLKIPEQFRHAIWKGILGHRQLHEF [D59G]	-0.02 ± 0.022
TDCSIVSFLARLGCSSCLDYFTTQGLTTIYQIEHYSMDDLASLKIPEQFRHAIWKGILWHRQLHEF [D59W]	-0.161 ± 0.027
TDCSIVSFLARLGCSSCLDYFTTQGLTTIYQIEHYSMDDLASLKIPEQFRHAIWKGILVHRQLHEF [D59V]	-0.034 ± 0.022
TDCSIVSFLARLGCSSCLDYFTTQGLTTIYQIEHYSMDDLASLKIPEQFRHAIWKGNLDHRQLHEF [I57N]	-0.799 ± 0.082
TDCSIVSFLARLGCSSCLDYFTTQGLTTIYQIEHYSMDDLASLKIPEQFRHAIWKGPLDHRQLHEF [I57P]	-1.04 ± 0.095
TDCSIVSFLARLGCSSCLDYFTTQGLTTIYQIEHYSMDDLASLKIPEQFRHAIWKGYLDHRQLHEF [I57Y]	-0.918 ± 0.086
TDCSIVSFLARLGCSSCLDYFTTQGLTTIYQIEHYSMDDLASLKIPEQFRHAIWKGVLDHRQLHEF [I57V]	-0.082 ± 0.023
TDCSIVSFLARLGCSSCLDYFTTQGLTTIYQIEHYSMDDLASLKIPEQFRHAIWKGWLDHRQLHEF [I57W]	-0.895 ± 0.1
TDCSIVSFLARLGCSSCLDYFTTQGLTTIYQIEHYSMDDLASLKIPEQFRHAIWKGQLDHRQLHEF [I57Q]	-0.611 ± 0.074
TDCSIVSFLARLGCSSCLDYFTTQGLTTIYQIEHYSMDDLASLKIPEQFRHAIWKGTLDHRQLHEF [I57T]	-0.323 ± 0.025
